Tests used:
[1] = target: CtpAΔN46 (residues 47-454), wild-type H. pylori CtpA (Helicobacter pylori G27); assay: crystal structure; sitting-drop vapour diffusion; wild type: 100 mM bis-Tris-HCl pH 6.5, 100 mM magnesium chloride, 25% PEG 3350, 16 °C; F105R: Morpheus condition A8
[2] = target: CtpAΔN46 (residues 47-454), wild-type H. pylori CtpA (Helicobacter pylori G27); assay: AUC; sedimentation velocity, absorbance, 28,000 rpm, 16 °C, c(s) model in SEDFIT
[3] = target: CtpAΔN46 (residues 47-454), wild-type H. pylori CtpA (Helicobacter pylori G27); assay: cryo-EM structure; 2 mg/ml protein on Quantifoil R1.2/1.3 grids, Titan Krios 300 kV
[4] = target: Recombinant HP1076 protein (Helicobacter pylori); assay: MST; CtpA_(S300A) diluted from 165 μM to 5.04 nM, mixed 1:1 with 45 nM RED-NHS-labelled HP1076; Monolith NT.115, 70% excitation power, 40% MST power, 20 °C
[5] = target: CtpA_(F105R) mutant (Helicobacter pylori G27); assay: crystal structure; sitting-drop vapour diffusion; wild type: 100 mM bis-Tris-HCl pH 6.5, 100 mM magnesium chloride, 25% PEG 3350, 16 °C; F105R: Morpheus condition A8
[6] = target: CtpA_(S300A/K325A/Q329A) triple mutant (CtpATM) (Helicobacter pylori G27); assay: cryo-EM structure; 2 mg/ml protein on Quantifoil R1.2/1.3 grids, Titan Krios 300 kV

“CtpAΔN46 (residues 47-454), wild-type H. pylori CtpA (enzyme)” was tested, and the stoichiometry N [1] was 6, the stoichiometry N [2] was 6 and the stoichiometry N [3] was 6.

In the case of “CtpA_(S300A) (inactive mutant of CtpAΔN46) (enzyme)”, the Kd [4] is reported as 15.4 µM.

With CtpA_(F105R) mutant (enzyme) the stoichiometry N [5] was 6.

“CtpA_(S300A/K325A/Q329A) triple mutant (CtpATM) (enzyme)” was tested, and the stoichiometry N [6] was 6.

— paper PMC12749690
